Drawing on patent US20240083983A1 (Regeneron, published 2024), this text covers EC50 for 1 molecule.

For the assay, the target named is Influenza B hemagglutinin (HA) from B/Florida/4/2006 (Influenza B virus, strain …, UniProt P03463 16-583).

B1: mAb35490 (antibody, human IgG1, kappa, V domains shown)
VH: EVQLVESGGDLVQPGGSLRLSCAASGFTVSSNYMSWVRQVPGKGLDWVSVTYSGGNTYYADSVKGRFTISRHNSKNTLYLQMNSLRIEDTAVYYCATVPSFHGMDVWGQGTTVTVSS
VL: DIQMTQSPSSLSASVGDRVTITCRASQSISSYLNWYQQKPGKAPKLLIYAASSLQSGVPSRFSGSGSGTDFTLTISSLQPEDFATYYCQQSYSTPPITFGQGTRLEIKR
As for B1, the concentration giving a half-maximal response (EC50) was 0.761 nM. In other words, the sub-nanomolar range.
